According to US20140178854A1:

Tests used:
[1] = target: gp70 env protein of amphotropic MLV (4070A envelope), on purified viral particles (amphotropic murine leukemia virus (4070A envelope)); experiment: ELISA on plate-bound MLV, dilution factor 10, Exp072-DTV Plate 2
[2] = target: gp70 env protein of amphotropic MLV (4070A envelope), on purified viral particles (amphotropic murine leukemia virus (4070A envelope)); experiment: ELISA on plate-bound MLV, dilution factor 10, Exp074-DTV Plate 1
[3] = target: gp70 env protein of amphotropic MLV (4070A envelope), on purified viral particles (amphotropic murine leukemia virus (4070A envelope)); experiment: ELISA on plate-bound MLV, dilution factor 10, Exp125-Ana Plate 1
[4] = target: gp70 env protein of amphotropic MLV (4070A envelope), on purified viral particles (amphotropic murine leukemia virus (4070A envelope)); experiment: ELISA on plate-bound MLV, dilution factor 50, Exp072-DTV Plate 2
[5] = target: gp70 env protein of amphotropic MLV (4070A envelope), on purified viral particles (amphotropic murine leukemia virus (4070A envelope)); experiment: ELISA on plate-bound MLV, dilution factor 50, Exp073-DTV Plate 2
[6] = target: gp70 env protein of amphotropic MLV (4070A envelope), on purified viral particles (amphotropic murine leukemia virus (4070A envelope)); experiment: ELISA on plate-bound MLV, dilution factor 50, Exp074-DTV Plate 2
[7] = target: gp70 env protein of amphotropic MLV (4070A envelope), on purified viral particles (amphotropic murine leukemia virus (4070A envelope)); experiment: ELISA on plate-bound MLV, dilution factor 50, Exp122-Ana Plate 1
[8] = target: gp70 env protein of amphotropic MLV (4070A envelope), on purified viral particles (amphotropic murine leukemia virus (4070A envelope)); experiment: ELISA on plate-bound MLV, dilution factor 250, Exp073-DTV Plate 1
[9] = target: gp70 env protein of amphotropic MLV (4070A envelope), on purified viral particles (amphotropic murine leukemia virus (4070A envelope)); experiment: ELISA on plate-bound MLV, dilution factor 250, Exp122-Ana Plate 1
[10] = target: gp70 env protein of amphotropic MLV (4070A envelope), on purified viral particles (amphotropic murine leukemia virus (4070A envelope)); experiment: ELISA on plate-bound MLV, dilution factor 1250, Exp074-DTV Plate 2
[11] = target: gp70 env protein of amphotropic MLV (4070A envelope), on purified viral particles (amphotropic murine leukemia virus (4070A envelope)); experiment: ELISA on plate-bound MLV, dilution factor 1250, Exp122-Ana Plate 1
[12] = target: gp70 env protein of amphotropic MLV (4070A envelope), on purified viral particles (amphotropic murine leukemia virus (4070A envelope)); experiment: ELISA on plate-bound MLV, dilution factor 6250, Exp072-DTV Plate 2
[13] = target: gp70 env protein of amphotropic MLV (4070A envelope), on purified viral particles (amphotropic murine leukemia virus (4070A envelope)); experiment: ELISA on plate-bound MLV, dilution factor 6250, Exp122-Ana Plate 2
[14] = target: gp70 env protein of amphotropic MLV (4070A envelope), on purified viral particles (amphotropic murine leukemia virus (4070A envelope)); experiment: ELISA on plate-bound MLV, dilution factor 31250, Exp073-DTV Plate 1
[15] = target: gp70 env protein of amphotropic MLV (4070A envelope), on purified viral particles (amphotropic murine leukemia virus (4070A envelope)); experiment: ELISA on plate-bound MLV, dilution factor 31250, Exp121-Ana Plate 2
[16] = target: gp70 env protein of amphotropic MLV (4070A envelope), on purified viral particles (amphotropic murine leukemia virus (4070A envelope)); experiment: ELISA on plate-bound MLV, dilution factor 31250, Exp122-Ana Plate 2
[17] = target: gp70 env protein of amphotropic MLV (4070A envelope), on purified viral particles (amphotropic murine leukemia virus (4070A envelope)); experiment: ELISA on plate-bound MLV, dilution factor 31250, Exp125-Ana Plate 1
[18] = target: gp70 env protein of amphotropic MLV (4070A envelope), on purified viral particles (amphotropic murine leukemia virus (4070A envelope)); experiment: ELISA on plate-bound MLV, dilution factor 31250, Exp125-Ana Plate 2
[19] = target: gp70 env protein of amphotropic MLV (4070A envelope), on purified viral particles (amphotropic murine leukemia virus (4070A envelope)); experiment: ELISA on plate-bound MLV, dilution factor 156250, Exp072-DTV Plate 1
[20] = target: gp70 env protein of amphotropic MLV (4070A envelope), on purified viral particles (amphotropic murine leukemia virus (4070A envelope)); experiment: ELISA on plate-bound MLV, dilution factor 156250, Exp074-DTV Plate 2
[21] = target: gp70 env protein of amphotropic MLV (4070A envelope), on purified viral particles (amphotropic murine leukemia virus (4070A envelope)); experiment: ELISA on plate-bound MLV, dilution factor 781250, Exp074-DTV Plate 1
[22] = target: gp70 env protein of amphotropic MLV (4070A envelope), on purified viral particles (amphotropic murine leukemia virus (4070A envelope)); experiment: ELISA on plate-bound MLV, dilution factor 50, inter-assay mean of six experiments
[23] = target: gp70 env protein of amphotropic MLV (4070A envelope), on purified viral particles (amphotropic murine leukemia virus (4070A envelope)); experiment: ELISA on plate-bound MLV, dilution factor 250, inter-assay mean of six experiments
[24] = target: gp70 env protein of amphotropic MLV (4070A envelope), on purified viral particles (amphotropic murine leukemia virus (4070A envelope)); experiment: ELISA on plate-bound MLV, dilution factor 1250, inter-assay mean of six experiments
[25] = target: gp70 env protein of amphotropic MLV (4070A envelope), on purified viral particles (amphotropic murine leukemia virus (4070A envelope)); experiment: ELISA on plate-bound MLV, dilution factor 31250, inter-assay mean of six experiments
[26] = target: gp70 env protein of amphotropic MLV (4070A envelope), on purified viral particles (amphotropic murine leukemia virus (4070A envelope)); experiment: human anti-MLV ELISA on plate-bound MLV, anti-rat Ig HRP alone or conjugate cocktail

Sequence of gp70 env protein of amphotropic MLV (4070A envelope), on purified viral particles (amphotropic murine leukemia virus (4070A envelope)) (P21995 whole entry): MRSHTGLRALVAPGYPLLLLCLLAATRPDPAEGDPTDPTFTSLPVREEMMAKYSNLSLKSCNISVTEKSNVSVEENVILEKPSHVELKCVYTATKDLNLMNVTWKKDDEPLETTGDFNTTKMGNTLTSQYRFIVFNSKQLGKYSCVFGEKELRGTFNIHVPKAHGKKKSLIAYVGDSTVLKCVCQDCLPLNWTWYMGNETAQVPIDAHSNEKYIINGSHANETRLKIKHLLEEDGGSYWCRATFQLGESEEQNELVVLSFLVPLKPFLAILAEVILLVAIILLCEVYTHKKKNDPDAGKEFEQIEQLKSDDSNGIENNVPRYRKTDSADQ

Work on “83A25 monoclonal antibody (rat IgG2a, anti-gp70)” yielded a Mean OD [1] of 2.04 OD, a Mean OD [2] of 2.25 OD and a Mean OD [3] of 2.17 OD. It also gave a Mean OD [4] of 1.86 OD, a Mean OD [5] of 2.31 OD and a Mean OD [6] of 2.14 OD. The Mean OD [7] was 2.01 OD, the Mean OD [8] was 2.05 OD and the Mean OD [9] was 1.86 OD. For the same substance, the Mean OD [10] was 1.39 OD, the Mean OD [11] was 1.48 OD and the Mean OD [12] was 0.612 OD. It also gave a Mean OD [13] of 0.643 OD, a Mean OD [14] of 0.282 OD and a Mean OD [15] of 0.276 OD. The Mean OD [16] was 0.271 OD, the Mean OD [17] was 0.235 OD and the Mean OD [18] was 0.239 OD. It also gave a Mean OD [19] of 0.116 OD, a Mean OD [20] of 0.131 OD and a Mean OD [21] of 0.114 OD. For the same substance, the Mean OD (inter-assay mean) [22] was 2.09 OD, the Mean OD (inter-assay mean) [23] was 1.93 OD and the Mean OD (inter-assay mean) [24] was 1.53 OD. For the same substance, the Mean OD (inter-assay mean) [25] was 0.259 OD and the titer (reciprocal dilution (1:x)) [26] was 312000.
